Patent US20180119166

Target: T1, MBP fusion protein of the carboxyl-terminal domain of Gle1 (MBP-Gle1C; amino acid residues 244-611)
T1 chain: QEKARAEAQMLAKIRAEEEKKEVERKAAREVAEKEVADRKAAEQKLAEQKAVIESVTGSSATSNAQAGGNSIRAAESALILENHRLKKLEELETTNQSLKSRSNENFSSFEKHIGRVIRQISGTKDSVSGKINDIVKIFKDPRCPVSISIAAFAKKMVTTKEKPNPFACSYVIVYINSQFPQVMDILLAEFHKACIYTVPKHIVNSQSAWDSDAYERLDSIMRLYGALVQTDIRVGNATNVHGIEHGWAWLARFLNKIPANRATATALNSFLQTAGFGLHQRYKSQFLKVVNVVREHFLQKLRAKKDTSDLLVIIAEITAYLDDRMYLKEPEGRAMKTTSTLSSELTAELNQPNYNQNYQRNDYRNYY

B1: 6x-histidine-fused LOS4 (LOS4-His) (protein)
chain: MADTVEKVPTVVESSSSSTVEASNSAEKTEPTTEKKKWGDVEDDDDEEEAVSELNSLSIKEEEKPDSILEEPEDSNIKAVTSGDTPYTSASRFEDLNLSPELMKGLYVEMKFEKPSKIQAISLPMIMTPPHKHLIAQAHNGSGKTTCFVLGMLSRVDPTLREPQALCICPTRELANQNMEVLQKMGKFTGITAELAVPDSTRGAPAATRGAPVSAHVVIGTPGTLKKWMAFKRLGLNHLKILVFDEADHMLATDGFRDDSLKIMKDIGRVNPNFQVLLFSATFNETVKDFVARTVKDPNQLFVKREDLALDSVKQYKVVCPKEQNKIEVIKDQIMELGDIGQTIIFVKTKASAQKVHKALAEMGYDVTSVHGNLTESDRDKIVKEFKECLTQVLIATDVIARGFDQQRVNLVVNYNLPTKYETGEPDYEVYLHRVGRAGRFGRKGAVFNLLLDDGWDKEVMEKIEKYFEANVKEIKSWNSEEEYKSALKEAGLLDEHHHHHH
- apparent kcat of LOS4-His with MBP-Gle1C (2 µM MBP-Gle1C, 1 µM LOS4-His): the apparent kcat values for LOS4-His alone and LOS4-His with MBP-Gle1C were calculated to be 0.267 and 0.565 sec^-1, respectively
- fold increase in the overall catalytic rate of LOS4 (kcat against LOS4-His alone, 0.267 sec^-1): an approximately two-fold increase in the overall catalytic rate of LOS4 by Gle1
